Source: patent US20170008928A1, “NOVEL PEPTIDES AND PEPTIDE DERIVATIVES AND USES THEREOF” (Novo Nordisk A/S, priority 2015, published 2017)
Starred links: 1 amine or outer side, 2 acyl side, 3 side chain; linkers in the order of their positions; H or OH if unused. Non-standard residues stand in square brackets, D forms with d. No end group written: not given here. *: point of attachment. Phe(4-CH2SO3H) = N[C@@H](Cc1ccc(CS(=O)(=O)O)cc1)C(=O)O; sY = N[C@@H](Cc1ccc(OS(=O)(=O)O)cc1)C(=O)O; C18 diacid = O=C(O)CCCCCCCCCCCCCCCCC(=O)*; γGlu = O=C(O)[C@H](CCC(=O)[*:2])N[*:1]; βAsp = O=C(O)[C@H](CC(=O)[*:2])N[*:1]; Met(O2) = CS(=O)(=O)CC[C@H](N)C(=O)O; NMeF = CN[C@@H](Cc1ccccc1)C(=O)O; dNMeD = CN[C@H](CC(=O)O)C(=O)O; Nle = CCCC[C@H](N)C(=O)O; AEEA = NCCOCCOCC(=O)O

Tests used:
[1] = biological target: T1, human cholecystokinin-1 receptor (human, UniProt P32238 1-428); experiment: SPA competition vs [125I]-CCK-8s, membranes
T1 construct: whole, on cells; also called CCK-1R; CCK-1 receptor
T1 sequence (looked up): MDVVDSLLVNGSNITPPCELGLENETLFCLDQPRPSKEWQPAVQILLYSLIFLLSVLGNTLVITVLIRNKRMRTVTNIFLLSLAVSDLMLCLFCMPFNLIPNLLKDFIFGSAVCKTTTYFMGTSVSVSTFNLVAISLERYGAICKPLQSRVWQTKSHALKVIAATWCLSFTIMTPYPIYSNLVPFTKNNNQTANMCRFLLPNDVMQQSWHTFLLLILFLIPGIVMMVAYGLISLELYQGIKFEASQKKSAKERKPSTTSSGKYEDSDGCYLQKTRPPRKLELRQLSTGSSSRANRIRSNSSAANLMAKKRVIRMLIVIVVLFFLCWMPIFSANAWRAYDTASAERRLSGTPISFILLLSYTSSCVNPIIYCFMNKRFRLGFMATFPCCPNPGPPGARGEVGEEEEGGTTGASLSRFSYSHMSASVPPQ
Protocol: (§1) CCK receptor binding assays were performed in 96-well Optiplates (Cat #6005290, PerkinElmer, Waltham, Mass., USA) in a total volume of 200 μl per well.
(§2) The plates were sealed and incubated in the dark at +22° C. for 2 hours on a IKA MTS plate shaker (IKA-Werke D-79219 Staufen) set at 300 rpm and thereafter centrifuged at 1500 rpm for 10 minutes in a Heraeus Multifuge 3s centrifuge. SPA bead light emission was measured in a TopCount NXT (PerkinElmer) for 2 min/well after a delay of 60 min.

[2] = biological target: T2, human cholecystokinin-2 receptor (human, UniProt P32239 1-447); experiment: SPA competition vs [125I]-CCK-8s, membranes
T2 construct: whole, on cells; also called CCK-2R; CCK-2 receptor
T2 sequence (looked up): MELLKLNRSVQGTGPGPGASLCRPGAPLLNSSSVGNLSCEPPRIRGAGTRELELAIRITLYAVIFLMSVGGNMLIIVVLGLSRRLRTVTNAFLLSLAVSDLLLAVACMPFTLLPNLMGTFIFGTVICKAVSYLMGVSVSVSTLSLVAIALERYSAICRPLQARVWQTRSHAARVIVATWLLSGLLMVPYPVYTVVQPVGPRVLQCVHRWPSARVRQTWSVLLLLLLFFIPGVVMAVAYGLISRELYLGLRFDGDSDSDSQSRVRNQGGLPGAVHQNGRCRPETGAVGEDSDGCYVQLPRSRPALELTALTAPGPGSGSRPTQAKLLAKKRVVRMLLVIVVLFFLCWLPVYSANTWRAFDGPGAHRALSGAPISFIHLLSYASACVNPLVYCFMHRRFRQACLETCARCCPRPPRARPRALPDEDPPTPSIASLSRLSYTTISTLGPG
Protocol: as §1, §2

[3] = biological target: T1, human cholecystokinin-1 receptor; experiment: cell-based or functional assay
[4] = biological target: T2, human cholecystokinin-2 receptor; experiment: cell-based or functional assay

{C18 diacid-γGlu-AEEA-AEEA}-K[AEEA]D[Phe(4-CH2SO3H)][Nle]GW[Nle][dNMeD][NMeF]-NH2 (X = Nle or Nal) gave an IC50 [1] of 0.081 nM and an IC50 [2] of 7400 nM.

B1: bAsp-Phe(4-sulfomethyl)-Nle-Gly-Trp-Nle-DMeAsp-MePhe-amide (peptide)
peptide: [βAsp][Phe(4-CH2SO3H)][Nle]GW[Nle][dNMeD][NMeF]-NH2
modifications: N-terminus assumed
SMILES: CCCC[C@H](NC(=O)[C@H](Cc1ccc(CS(=O)(=O)O)cc1)NC(=O)C[C@H](N)C(=O)O)C(=O)NCC(=O)N[C@@H](Cc1c[nH]c2ccccc12)C(=O)N[C@@H](CCCC)C(=O)N(C)[C@H](CC(=O)O)C(=O)N(C)[C@@H](Cc1ccccc1)C(N)=O
notes: X = Nle or Nal
With B1 the IC50 [2] was 2900 nM, the “EC50 (CCK-1R)” value [3] was 0.19 nM and the “EC50 (CCK-2R)” value [4] was > 1000 nM.

B2: 2-[2-[2-[[2-[2-[2-[[(4S)-4-Carboxy-4-(17-carboxyheptadecanoylamino)butanoyl]amino]ethoxy]ethoxy]acetyl]amino]ethoxy]ethoxy]acetyl-bAsp-Phe(4-sulfomethyl)-Nle-Gl … (peptide)
peptide: {C18 diacid-γGlu-AEEA-AEEA}-[βAsp][Phe(4-CH2SO3H)][Nle]GW[Nle][dNMeD][NMeF]-NH2
SMILES: CCCC[C@H](NC(=O)[C@H](Cc1ccc(CS(=O)(=O)O)cc1)NC(=O)C[C@H](NC(=O)COCCOCCNC(=O)COCCOCCNC(=O)CC[C@H](NC(=O)CCCCCCCCCCCCCCCCC(=O)O)C(=O)O)C(=O)O)C(=O)NCC(=O)N[C@@H](Cc1c[nH]c2ccccc12)C(=O)N[C@@H](CCCC)C(=O)N(C)[C@H](CC(=O)O)C(=O)N(C)[C@@H](Cc1ccccc1)C(N)=O
notes: X = Nle or Nal
B2 was tested, and the IC50 [1] was 0.063 nM and the “EC50 (CCK-1R)” value [3] was 0.36 nM.

B3: sTyr-Nle-Gly-Trp-Nle-DMeAsp-MePhe-amide (peptide)
peptide: [sY][Nle]GW[Nle][dNMeD][NMeF]-NH2
modifications: N-terminus assumed
SMILES: CCCC[C@H](NC(=O)[C@@H](N)Cc1ccc(OS(=O)(=O)O)cc1)C(=O)NCC(=O)N[C@@H](Cc1c[nH]c2ccccc12)C(=O)N[C@@H](CCCC)C(=O)N(C)[C@H](CC(=O)O)C(=O)N(C)[C@@H](Cc1ccccc1)C(N)=O
notes: X = Nle or Nal
With B3 the IC50 [1] was 0.06 nM, the “EC50 (CCK-1R)” value [3] was 0.33 nM and the EC50 (CCK-2R) [4] was > 1000 nM.

For EGPWLEEEEEAYGWMDF (N-terminal pyroglutamic acid (pE, Pyr); C-terminal amide; Tyr non-sulfated), the IC50 [1] was 340 nM and the “EC50 (CCK-1R)” value [3] was 530 nM.

In the case of {C18 diacid-γGlu-AEEA-AEEA}-D[Phe(4-CH2SO3H)][Nle]GW[Nle][dNMeD][NMeF]-NH2 (X = Nle or Nal), the IC50 [1] is reported as 0.26 nM.

B4: Asp-Phe(4-sulfomethyl)-Nle-Gly-Trp-Nle-DMeAsp-MePhe-amide (peptide)
peptide: D[Phe(4-CH2SO3H)][Nle]GW[Nle][dNMeD][NMeF]-NH2
modifications: N-terminus assumed
SMILES: CCCC[C@H](NC(=O)[C@H](Cc1ccc(CS(=O)(=O)O)cc1)NC(=O)[C@@H](N)CC(=O)O)C(=O)NCC(=O)N[C@@H](Cc1c[nH]c2ccccc12)C(=O)N[C@@H](CCCC)C(=O)N(C)[C@H](CC(=O)O)C(=O)N(C)[C@@H](Cc1ccccc1)C(N)=O
notes: X = Nle or Nal
B4 was tested, and the IC50 [1] was 0.046 nM, the “EC50 (CCK-1R)” value [3] was 0.25 nM and the EC50 (CCK-2R) [4] was > 1000 nM.

B5: 17-Carboxyheptadecanoyl-Gly-Ser-Ser-Gly-Ser-Ser-Asp-sTyr-Leu-Gly-Trp-Nle-DMeAsp-MePhe-amide (peptide)
peptide: {C18 diacid}-GSSGSSD[sY]LGW[Nle][dNMeD][NMeF]-NH2
SMILES: CCCC[C@H](NC(=O)[C@H](Cc1c[nH]c2ccccc12)NC(=O)CNC(=O)[C@H](CC(C)C)NC(=O)[C@H](Cc1ccc(OS(=O)(=O)O)cc1)NC(=O)[C@H](CC(=O)O)NC(=O)[C@H](CO)NC(=O)[C@H](CO)NC(=O)CNC(=O)[C@H](CO)NC(=O)[C@H](CO)NC(=O)CNC(=O)CCCCCCCCCCCCCCCCC(=O)O)C(=O)N(C)[C@H](CC(=O)O)C(=O)N(C)[C@@H](Cc1ccccc1)C(N)=O
notes: X = Nle or Nal; The Gly-Ser-Ser-Gly-Ser-Ser linker is written as part of the chain
With B5 the IC50 [2] was 370 nM, the “EC50 (CCK-1R)” value [3] was 0.61 nM and the “EC50 (CCK-2R)” value [4] was 17 nM.

{C18 diacid-γGlu-AEEA-AEEA}-D[sY]LGW[Met(O2)][dNMeD][NMeF]-NH2 was tested, and the IC50 [1] was 0.64 nM, the “EC50 (CCK-1R)” value [3] was 0.14 nM and the “EC50 (CCK-2R)” value [4] was > 1000 nM.

E[sY]LGWQ[dNMeD][NMeF]-NH2 [Glu-sTyr-Leu-Gly-Trp-Gln-DMeAsp-MePhe-amide] was tested, and the IC50 [1] was 0.085 nM and the “EC50 (CCK-2R)” value [4] was > 1000 nM.

{C18 diacid-γGlu-AEEA-AEEA}-E[sY]LGWQ[dNMeD][NMeF]-NH2 was tested, and the IC50 [1] was 0.097 nM, the “EC50 (CCK-1R)” value [3] was 0.22 nM and the “EC50 (CCK-2R)” value [4] was > 1000 nM.

For {C18 diacid-γGlu-AEEA-AEEA}-[dD][Phe(4-CH2SO3H)][Nle]GW[Nle][dNMeD][NMeF]-NH2 (X = Nle or Nal), the IC50 [1] was 0.072 nM and the “EC50 (CCK-1R)” value [3] was 0.37 nM.

{C18 diacid-γGlu-AEEA-AEEA}-D[sY]KGW[Nle][dNMeD][NMeF]-NH2 (X = Nle or Nal) was tested, and the IC50 [1] was 0.099 nM, the “EC50 (CCK-1R)” value [3] was 0.36 nM and the “EC50 (CCK-2R)” value [4] was 310 nM.

B6: 2-[2-[2-[[2-[2-[2-[[(4S)-4-Carboxy-4-(17-carboxyheptadecanoylamino)butanoyl]amino]ethoxy]ethoxy]acetyl]amino]ethoxy]ethoxy]acetyl-Glu-sTyr-Leu-Gly-Trp-Nle-DMeAs … (peptide)
peptide: {C18 diacid-γGlu-AEEA-AEEA}-E[sY]LGW[Nle][dNMeD]F-NH2
SMILES: CCCC[C@H](NC(=O)[C@H](Cc1c[nH]c2ccccc12)NC(=O)CNC(=O)[C@H](CC(C)C)NC(=O)[C@H](Cc1ccc(OS(=O)(=O)O)cc1)NC(=O)[C@H](CCC(=O)O)NC(=O)COCCOCCNC(=O)COCCOCCNC(=O)CC[C@H](NC(=O)CCCCCCCCCCCCCCCCC(=O)O)C(=O)O)C(=O)N(C)[C@H](CC(=O)O)C(=O)N[C@@H](Cc1ccccc1)C(N)=O
notes: X = Nle or Nal
In the case of B6, the IC50 [2] is reported as 480 nM, the “EC50 (CCK-1R)” value [3] is reported as 0.37 nM and the “EC50 (CCK-2R)” value [4] is reported as 94 nM.

B7: Asp-sTyr-Ala-Gly-Trp-Nle-DMeAsp-MePhe-amide (peptide)
peptide: D[sY]AGW[Nle][dNMeD][NMeF]-NH2
modifications: N-terminus assumed
SMILES: CCCC[C@H](NC(=O)[C@H](Cc1c[nH]c2ccccc12)NC(=O)CNC(=O)[C@H](C)NC(=O)[C@H](Cc1ccc(OS(=O)(=O)O)cc1)NC(=O)[C@@H](N)CC(=O)O)C(=O)N(C)[C@H](CC(=O)O)C(=O)N(C)[C@@H](Cc1ccccc1)C(N)=O
notes: X = Nle or Nal
For B7, the IC50 [1] was 0.055 nM, the “EC50 (CCK-1R)” value [3] was 0.16 nM and the EC50 (CCK-2R) [4] was > 1000 nM.

B8: 2-[2-[2-[[2-[2-[2-[[(4S)-4-Carboxy-4-(17-carboxyheptadecanoylamino)butanoyl]amino]ethoxy]ethoxy]acetyl]amino]ethoxy]ethoxy]acetyl-Asp-sTyr-Ser-Gly-Trp-Nle-DMeAs … (peptide)
peptide: {C18 diacid-γGlu-AEEA-AEEA}-D[sY]SGW[Nle][dNMeD][NMeF]-NH2
SMILES: CCCC[C@H](NC(=O)[C@H](Cc1c[nH]c2ccccc12)NC(=O)CNC(=O)[C@H](CO)NC(=O)[C@H](Cc1ccc(OS(=O)(=O)O)cc1)NC(=O)[C@H](CC(=O)O)NC(=O)COCCOCCNC(=O)COCCOCCNC(=O)CC[C@H](NC(=O)CCCCCCCCCCCCCCCCC(=O)O)C(=O)O)C(=O)N(C)[C@H](CC(=O)O)C(=O)N(C)[C@@H](Cc1ccccc1)C(N)=O
notes: X = Nle or Nal
B8 was tested, and the IC50 [1] was 0.058 nM, the IC50 [2] was 4700 nM and the “EC50 (CCK-2R)” value [4] was 940 nM.

B9: Asp-sTyr-Lys-Gly-Trp-Nle-DMeAsp-MePhe-amide (peptide)
peptide: D[sY]KGW[Nle][dNMeD][NMeF]-NH2
modifications: N-terminus assumed
SMILES: CCCC[C@H](NC(=O)[C@H](Cc1c[nH]c2ccccc12)NC(=O)CNC(=O)[C@H](CCCCN)NC(=O)[C@H](Cc1ccc(OS(=O)(=O)O)cc1)NC(=O)[C@@H](N)CC(=O)O)C(=O)N(C)[C@H](CC(=O)O)C(=O)N(C)[C@@H](Cc1ccccc1)C(N)=O
notes: X = Nle or Nal
For B9, the IC50 [1] was 0.03 nM, the “EC50 (CCK-1R)” value [3] was 0.26 nM and the “EC50 (CCK-2R)” value [4] was > 1000 nM.
